Values belong to the binder of their own block, whether it stands above or below them.
Tests used:
[1] = target: T1, human PD-1 expressed on cells (human, UniProt Q15116 25-288); experiment: flow cytometry (FACS), MFI, CHO cells expressing human PD-1
T1 construct: whole, on cells; also called human PD-1 over-expressed on the CHO cells; Jurkat/NFkB-Luci/PD-1 cells
Experimental: (§1) Exemplary anti-PD-1/CD137 bi-specific antibodies were analyzed by FACS for their binding properties to human PD-1 and/or human CD137 expressed on CHO cells. Briefly, cultured cells were harvested, counted and cell viability was evaluated using the Trypan Blue exclusion method. Viable cells were then adjusted to 2×10⁶ cells per mL in PBS containing 2% BSA. 100 μL of this cell suspension were further aliquoted per well into a V-bottom 96-well plate. […] After incubation for 2 hours at 4° C., cells were centrifuged (3 min, 1000× g), washed with 250 μL/well BSA-containing FACS Stain Buffer, resuspended and incubated for an additional 1 hour at 4° C. with 100 μL/well fluorochrome-conjugated anti-IgG antibody for detection of the bisepecific antibody. Cells were then washed with 250 μL/well BSA-containing FACS Stain Buffer, resuspended in 100 μL/well FACS Stain Buffer, acquired and analyzed using a FACS machine. Binding of the bispecific antibodies to human PD-1 or human CD137 expressing CHO cells were evaluated and the mean fluorescence intensity is plotted in histograms or dot plots.

[2] = target: T2, human CD137 ECD protein (His tag) (human, UniProt Q07011 24-186); experiment: bridging ELISA: human CD137 ECD (His tag) coated, antibody titrated, then human PD-1 ECD (mouse IgG2a Fc tag), HRP anti-mouse IgG2a Fc; A450-A620
T2 construct: extracellular domain; also called recombinant human CD137; not shown: His tag
Experimental: Exemplary anti-PD-1/CD137 bi-specific antibodies were analyzed by ELISA for their simultaneous binding to recombinant human PD-1 and human CD137. Briefly, human CD137 ECD protein (His tag) was diluted and coated onto an ELISA plate with a volume of 100 μL/well by incubation at 4° C. overnight. The next day, the plate was blocked with PBST-BSA buffer, then serially diluted samples of anti-PD-1/CD137 bi-specific antibodies were pipetted into appropriate wells at 50 μL/well, and the plate was incubated for 1 hour followed by washing. The extracellular domain (ECD) of human PD-1 protein (mouse IgG2a Fc tag) was added into the plate at 50 μL/well. After 1-hour incubation at room temperature, HRP-conjugated anti-Mouse IgG, Fc G2a specific antibody was added into the plate at 100 μL/well. The plate was incubated for 1 hour at room temperature followed by washing. TMB substrate solution was added at 100 μL/well and the color development was stopped by adding 100 uL/well Stop Solution (2N H₂SO₄). Absorbance at 450 nm and 620 nm was read by Tecan F200 Pro plate reader. GraphPad 7.0, “[Agonist] vs. response—Variable slope (four parameters)” was used to plot the binding data and calculate binding EC50 values.

[3] = target: T3, human CD137 expressed on cells (human, UniProt Q07011 24-255); experiment: flow cytometry (FACS), MFI, CHO cells expressing human CD137
T3 construct: whole, on cells; also called 4-1BB; TNFRSF9
T3 sequence (Q07011 24-255): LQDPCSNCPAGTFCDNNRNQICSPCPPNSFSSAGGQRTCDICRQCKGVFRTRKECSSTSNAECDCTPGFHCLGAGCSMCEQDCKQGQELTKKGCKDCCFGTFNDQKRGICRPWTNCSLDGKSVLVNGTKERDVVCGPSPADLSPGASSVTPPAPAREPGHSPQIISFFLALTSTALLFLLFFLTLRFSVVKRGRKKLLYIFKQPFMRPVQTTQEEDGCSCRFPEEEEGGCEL
Experimental: as §1

T1 sequence (Q15116 25-288): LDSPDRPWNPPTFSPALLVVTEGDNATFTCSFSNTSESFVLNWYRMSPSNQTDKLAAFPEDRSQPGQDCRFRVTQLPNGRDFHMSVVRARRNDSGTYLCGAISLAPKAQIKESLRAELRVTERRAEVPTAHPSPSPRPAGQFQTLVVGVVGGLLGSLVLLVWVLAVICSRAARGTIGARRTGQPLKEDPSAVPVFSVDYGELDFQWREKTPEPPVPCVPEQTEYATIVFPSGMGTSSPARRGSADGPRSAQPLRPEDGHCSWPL

EC50 (read off the curve) [1]: ~0.2 µg/mL
binding result [2]: binds
binding result [3]: binds
B1: Ly460 (bispecific antibody, human IgG1, kappa)
heavy: QVTLKESGPALVKPTQTLTLTCTFSGFSLSTSGTCVSWIRQPPGKALEWLATICWEDSKGYNPSLKSRLTISKDTSKNQAVLTMTNMDPVDTATYYCARREDSGYFWFPYWGQGTLVTVSSASTKGPSVFPLAPSSKSTSGGTAALGCLVKDYFPEPVTVSWNSGALTSGVHTFPAVLQSSGLYSLSSVVTVPSSSLGTQTYICNVNHKPSNTKVDKKVEPKSCDKTHTCPPCPAPELLGPSVFLFPPKPKDTLMISRTPEVTCVVVDVSHEDPEVKFNWYVDGVEVHNAKTKPREEQYNSTYRVVSVLTVLHQDWLNGKEYKCKVSNKALPAPIEKTISKAKGQPREPQVYTLPPSREEMTKNQVSLTCLVKGFYPSDIAVEWESNGQPENNYKTTPPVLDSDGSFFLYSKLTVDKSRWQQGNVFSCSVMHEALHNHYTQKSLSLSPGGGGGSGGGGSGGGGSGGGGSDIQMTQSPSSLSASVGDRVTITCRASQDIRSNLNWYQQKPGGAVKLLIYYTSRLHSGVPSRFSGSGSGTDYTLTISSLQPEDFATYFCQQSEKLPRTFGGGTKVEIRRTVAAPSVFIFPPSDEQLKSGTASVVCLLNNFYPREAKVQWKVDNALQSGNSQESVTEQDSKDSTYSLSSTLTLSKADYEKHKVYACEVTHQGLSSPVTKSFNRGEC
light: NIQMTQSPSSLSASVGDRVTITCKAGQNVNNYLAWYQQKPGKAPKVLIFNANSLQTGVPSRFSGSGSGTDFTLTISSLQPEDFATYYCQQYNSWPTFGGGTKVEIKRTVAAPSVFIFPPSDEQLKSGTASVVCLLNNFYPREAKVQWKVDNALQSGNSQESVTEQDSKDSTYSLSSTLTLSKADYEKHKVYACEVTHQGLSSPVTKSFNRGEC
chain: QVQLVQSGAEVKKPGASVKVSCKASGYTFAGFEMHWVRQAPGQGLEWMGAIDPKTGGTDYNQKFKDRVTMTRDTSISTAYMELSRLRSDDTAVYYCARDLGYFDVWGQGTLVTVSSASTKGPSVFPLAPSSKSTSGGTAALGCLVKDYFPEPVTVSWNSGALTSGVHTFPAVLQSSGLYSLSSVVTVPSSSLGTQTYICNVNHKPSNTKVDKKVEPKSCDK
notes: Three-chain format: Ly516 heavy chain fused to Ly1630 light chain; Ly516 light chain; Ly1630 VH-CH1

EC50 (read off the curve) [1]: ~0.2 µg/mL
EC50 (read off the curve) [2]: ~0.02 µg/mL
B2: Ly456 (bispecific antibody, human IgG1, kappa)
heavy: QVTLKESGPALVKPTQTLTLTCTFSGFSLSTSGTCVSWIRQPPGKALEWLATICWEDSKGYNPSLKSRLTISKDTSKNQAVLTMTNMDPVDTATYYCARREDSGYFWFPYWGQGTLVTVSSASTKGPSVFPLAPSSKSTSGGTAALGCLVKDYFPEPVTVSWNSGALTSGVHTFPAVLQSSGLYSLSSVVTVPSSSLGTQTYICNVNHKPSNTKVDKKVEPKSCDKTHTCPPCPAPELLGPSVFLFPPKPKDTLMISRTPEVTCVVVDVSHEDPEVKFNWYVDGVEVHNAKTKPREEQYNSTYRVVSVLTVLHQDWLNGKEYKCKVSNKALPAPIEKTISKAKGQPREPQVYTLPPSREEMTKNQVSLTCLVKGFYPSDIAVEWESNGQPENNYKTTPPVLDSDGSFFLYSKLTVDKSRWQQGNVFSCSVMHEALHNHYTQKSLSLSPGGGGGSGGGGSGGGGSGGGGSDIQMTQSPSSLSASVGDRVTITCRASQDIRSNLNWYQQKPGGAVKLLIYYTSRLHSGVPSRFSGSGSGTDYTLTISSLQPEDFATYFCQQSEKLPRTFGGGTKVEIRGGGGSGGGGSGGGGSGGGGSQVQLVQSGAEVKKPGASVKVSCKASGYTFAGFEMHWVRQAPGQGLEWMGAIDPKTGGTDYNQKFKDRVTMTRDTSISTAYMELSRLRSDDTAVYYCARDLGYFDVWGQGTLVTVSS
light: B1 light
notes: Anti-PD-1/CD137: Ly516 heavy chain fused at C-terminus to Ly1630 scFv (VL-VH); Ly516 light chain

EC50 (read off the curve) [1]: ~0.2 µg/mL
EC50 (read off the curve) [2]: ~0.02 µg/mL
EC50 (read off the curve) [3]: ~0.2 µg/mL
B3: Ly511 (bispecific antibody, human IgG2, kappa)
heavy: QVTLKESGPALVKPTQTLTLTCTFSGFSLSTSGTCVSWIRQPPGKALEWLATICWEDSKGYNPSLKSRLTISKDTSKNQAVLTMTNMDPVDTATYYCARREDSGYFWFPYWGQGTLVTVSSASTKGPSVFPLAPCSRSTSESTAALGCLVKDYFPEPVTVSWNSGALTSGVHTFPAVLQSSGLYSLSSVVTVPSSNFGTQTYTCNVDHKPSNTKVDKTVERKCCVECPPCPAPPVAPSVFLFPPKPKDTLMISRTPEVTCVVVDVSHEDPEVQFNWYVDGVEVHNAKTKPREEQFNSTFRVVSVLTVVHQDWLNGKEYKCKVSNKGLPAPIEKTISKTKGQPREPQVYTLPPSREEMTKNQVSLTCLVKGFYPSDIAVEWESNGQPENNYKTTPPMLDSDGSFFLYSKLTVDKSRWQQGNVFSCSVMHEALHNHYTQKSLSLSPGGGGGSGGGGSGGGGSGGGGSQVQLVQSGAEVKKPGASVKVSCKASGYTFAGFEMHWVRQAPGQGLEWMGAIDPKTGGTDYNQKFKDRVTMTRDTSISTAYMELSRLRSDDTAVYYCARDLGYFDVWGQGTLVTVSSGGGGSGGGGSGGGGSGGGGSDIQMTQSPSSLSASVGDRVTITCRASQDIRSNLNWYQQKPGGAVKLLIYYTSRLHSGVPSRFSGSGSGTDYTLTISSLQPEDFATYFCQQSEKLPRTFGGGTKVEIR
light: B1 light
notes: Anti-PD-1/CD137: Ly516 heavy chain fused to Ly1630 scFv (VH-VL); Ly516 light chain

EC50 (read off the curve) [1]: ~0.1 µg/mL
EC50 (read off the curve) [2]: ~0.02 µg/mL
B4: Ly512 (bispecific antibody, human IgG2, kappa)
heavy: QVTLKESGPALVKPTQTLTLTCTFSGFSLSTSGTCVSWIRQPPGKALEWLATICWEDSKGYNPSLKSRLTISKDTSKNQAVLTMTNMDPVDTATYYCARREDSGYFWFPYWGQGTLVTVSSASTKGPSVFPLAPCSRSTSESTAALGCLVKDYFPEPVTVSWNSGALTSGVHTFPAVLQSSGLYSLSSVVTVPSSNFGTQTYTCNVDHKPSNTKVDKTVERKCCVECPPCPAPPVAPSVFLFPPKPKDTLMISRTPEVTCVVVDVSHEDPEVQFNWYVDGVEVHNAKTKPREEQFNSTFRVVSVLTVVHQDWLNGKEYKCKVSNKGLPAPIEKTISKTKGQPREPQVYTLPPSREEMTKNQVSLTCLVKGFYPSDIAVEWESNGQPENNYKTTPPMLDSDGSFFLYSKLTVDKSRWQQGNVFSCSVMHEALHNHYTQKSLSLSPGK
light: NIQMTQSPSSLSASVGDRVTITCKAGQNVNNYLAWYQQKPGKAPKVLIFNANSLQTGVPSRFSGSGSGTDFTLTISSLQPEDFATYYCQQYNSWPTFGGGTKVEIKRTVAAPSVFIFPPSDEQLKSGTASVVCLLNNFYPREAKVQWKVDNALQSGNSQESVTEQDSKDSTYSLSSTLTLSKADYEKHKVYACEVTHQGLSSPVTKSFNRGECGGGGSGGGGSGGGGSGGGGSDIQMTQSPSSLSASVGDRVTITCRASQDIRSNLNWYQQKPGGAVKLLIYYTSRLHSGVPSRFSGSGSGTDYTLTISSLQPEDFATYFCQQSEKLPRTFGGGTKVEIRGGGGSGGGGSGGGGSGGGGSQVQLVQSGAEVKKPGASVKVSCKASGYTFAGFEMHWVRQAPGQGLEWMGAIDPKTGGTDYNQKFKDRVTMTRDTSISTAYMELSRLRSDDTAVYYCARDLGYFDVWGQGTLVTVSS
notes: Anti-PD-1/CD137: Ly516 heavy chain; Ly516 light chain fused to Ly1630 scFv (VL-VH)

Reference: US20230406950A1 (LYVGEN BIOPHARMA, published 2023)
